This note sets out measurements from patent US20250326842A1 (BEIGENE SWITZERLAND, published 2025).

In general, Kd refers to the constant that tells how readily two partners part at equilibrium. The term koff denotes the rate constant with which the complex falls apart. Usually kon stands for the rate constant with which the complex forms. Broadly, the EC50 (read off the curve) is the concentration needed to bring the measured effect to its halfway point. In general, EC50 refers to the concentration needed to bring the measured effect to its halfway point. Read a high EC50 as a less potent agent. A word on the IC50: it is the concentration needed to halve the response being measured. Lower therefore signals inhibition by little substance.

For assay [1], the target named is T1, human PVRIG recombinant protein (human, UniProt Q6DKI7 41-171).
T1 construct: also called human PVRIG protein; recombinant human antigen PVRIG
T1 sequence: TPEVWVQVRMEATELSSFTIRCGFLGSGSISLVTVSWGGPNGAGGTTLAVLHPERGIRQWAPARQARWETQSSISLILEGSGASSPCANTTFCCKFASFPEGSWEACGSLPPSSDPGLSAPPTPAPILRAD
Put plainly: SPR, antibody captured via anti-human Fc, human PVRIG analyte. From the text: For affinity determination, anti-PVRIG antibodies were captured by anti-human Fc antibodies, and used in the affinity assay based on surface plasmon resonance (SPR) technology.

The target of assay [2] is T2, Human Serum Albumin Protein His Tag (human, UniProt P02768 25-609).
T2 construct: also called negative control protein smear; not shown: His tag
Put plainly: immunohistochemistry on protein smears, Biotin-BGA384. From the text:
Materials and Methods: A total of 35 tissue types, each in triplicate from 3 donors, were used for the evaluation. […] 0.5 and […] Biotin-Human IgG1-Kappa (IgG1 isotype control), and 0.01 mol/L phosphate-buffered saline (reagent control).

In assay [3] the target is T3, hPVRIG-ECD-his (human, UniProt Q6DKI7 41-171).
T3 construct: Acrobiosystems PVG-H52H4; also called hPVRIG-His; human PVRIG-His; not shown: His tag
T3 sequence: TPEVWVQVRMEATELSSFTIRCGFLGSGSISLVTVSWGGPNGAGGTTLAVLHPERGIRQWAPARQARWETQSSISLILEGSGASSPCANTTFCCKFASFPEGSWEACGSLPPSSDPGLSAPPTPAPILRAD
Put plainly: blocking ELISA: hPVRIG-His coated, antibody mixed with PVRL2-biotin at 1 ug/mL; % inhibition of PVRL2 binding [panel B]. In general terms: An ELISA detects its analyte on a solid surface through an enzyme-linked reagent.

Assay [4] deals with T4, human PVRIG expressed on cells (human, UniProt Q6DKI7 41-326).
T4 construct: Jurkat cells engineered to express human PVRIG; also called hPVRIG-Jurkat; native human PVRIG
T4 sequence: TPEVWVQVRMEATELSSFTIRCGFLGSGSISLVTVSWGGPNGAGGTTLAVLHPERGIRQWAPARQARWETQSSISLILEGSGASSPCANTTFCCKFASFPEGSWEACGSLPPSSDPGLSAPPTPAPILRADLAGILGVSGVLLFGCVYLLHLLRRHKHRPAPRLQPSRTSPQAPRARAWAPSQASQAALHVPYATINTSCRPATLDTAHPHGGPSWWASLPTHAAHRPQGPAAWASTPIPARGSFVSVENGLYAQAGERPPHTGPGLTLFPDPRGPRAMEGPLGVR
Put plainly: flow cytometry on Jurkat cells expressing human PVRIG, anti-hFc-647 detection [panel B]. On the procedure: To evaluate the binding activity of anti-PVRIG antibodies to native PVRIG on living cells, Jurkat cells were engineered to express human PVRIG. Jurkat cells expressing PVRIG were seeded in 96 well plates and were incubated with serially diluted anti-PVRIG antibodies. […] EC50 values for dose dependent binding to human native PVRIG were determined by fitting the dose response data to the four-parameter logistic model with GraphPad Prism™.
Background: In flow cytometry, cells or beads pass a laser one at a time.

The target in assay [5] is T3, hPVRIG-ECD-his. Nature of the assay: SPR (Biacore), BGA384 captured via anti-human Fc, human PVRIG-His analyte. As to the method: SPR koff and kₒₙ were calculated using the one-to-one Langmuir binding model (BIA Evaluation Software, GE Life Sciences); KD was calculated as the ratio of koff/kₒₙ.
(SPR reads the build-up and loss of mass on a sensor chip optically.)

Another assay addresses FcγRIIIA V158 (human, UniProt P08637 17-208, limits assumed). Put plainly: Biacore, KD from equilibrium analysis. On the procedure:
(§1) K¹ (M) values were calculated from the ratio of the kinetic constants as KD=koff/kₒₙ. K2 (M) values were determined by the analyte concentration at which half of the ligands are occupied at equilibrium.

In a further assay the target is FcγRIIIA F158 (human, UniProt P08637 17-208, limits assumed). Put plainly: Biacore, KD from equilibrium analysis. As to the method:
as §1

For the next assay, the target named is T5, FcγRIIA R131 (human, UniProt P12318 36-218, limits assumed).
T5 sequence (looked up): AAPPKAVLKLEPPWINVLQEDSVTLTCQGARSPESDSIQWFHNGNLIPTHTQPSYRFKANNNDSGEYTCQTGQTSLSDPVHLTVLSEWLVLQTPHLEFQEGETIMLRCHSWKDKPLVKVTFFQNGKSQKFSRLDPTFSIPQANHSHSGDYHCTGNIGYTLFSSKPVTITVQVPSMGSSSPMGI
Put plainly: Biacore, KD from equilibrium analysis. As to the method:
as §1

A further assay deals with T6, FcγRIIB (human, UniProt P31994 46-217, limits assumed).
T6 sequence (looked up): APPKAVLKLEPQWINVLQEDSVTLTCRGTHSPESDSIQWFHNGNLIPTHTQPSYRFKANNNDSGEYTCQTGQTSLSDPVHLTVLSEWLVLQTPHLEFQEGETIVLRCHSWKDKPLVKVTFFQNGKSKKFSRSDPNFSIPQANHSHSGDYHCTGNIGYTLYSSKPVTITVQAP
Put plainly: Biacore, KD from equilibrium analysis. On the procedure:
as §1

In the next assay the target is T7, FcγRIIA H131 (human, UniProt P12318 36-218, limits assumed).
T7 sequence (looked up): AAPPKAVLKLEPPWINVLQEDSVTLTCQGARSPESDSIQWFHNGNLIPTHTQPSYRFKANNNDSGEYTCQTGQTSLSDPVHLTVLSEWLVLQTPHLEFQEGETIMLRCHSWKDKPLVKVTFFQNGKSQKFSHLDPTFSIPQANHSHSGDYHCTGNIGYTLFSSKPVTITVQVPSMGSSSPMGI
Nature of the assay: Biacore, KD from equilibrium analysis. On the procedure:
as §1

The target of assay [6] is T4, human PVRIG expressed on cells. Put plainly: flow cytometry on HuPVRIG-overexpressed Jurkat cells.
Assay [7] deals with T8, human PVRIG-mIgG2a (human, UniProt Q6DKI7 41-171, limits assumed).
T8 construct: also called hPVRIG-mIgG2a; hPVRIG; not shown: mouse IgG2a Fc
T8 sequence: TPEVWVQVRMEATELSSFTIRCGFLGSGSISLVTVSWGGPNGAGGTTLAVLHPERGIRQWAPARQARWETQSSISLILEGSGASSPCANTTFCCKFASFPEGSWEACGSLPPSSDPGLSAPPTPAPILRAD
Nature of the assay: ELISA, hPVRIG-mIgG2a coated at 0.5 µg/mL.

In assay [8] the target is T8, human PVRIG-mIgG2a. Nature of the assay: cell-based competition, BGA384 against binding of hPVRIG-mIgG2a (300 ng/ml) to Farage-hPVRL2 cells, flow cytometry. From the text: The bound human PVRIG was detected with PE anti-mouse IgG2a antibody by flow cytometry.

FcγRIIIA V158, sequence (P08637 17-208 F176V limits assumed): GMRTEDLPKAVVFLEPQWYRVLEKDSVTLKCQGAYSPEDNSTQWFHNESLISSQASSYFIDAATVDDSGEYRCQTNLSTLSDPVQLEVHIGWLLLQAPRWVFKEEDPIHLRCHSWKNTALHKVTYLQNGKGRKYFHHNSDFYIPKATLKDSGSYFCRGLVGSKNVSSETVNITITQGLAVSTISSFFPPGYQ
FcγRIIIA F158, sequence (P08637 17-208 limits assumed): as the sequence (P08637 17-208 F176V limits assumed) above, with V160F counted along it
T2 sequence (P02768 25-609 limits assumed): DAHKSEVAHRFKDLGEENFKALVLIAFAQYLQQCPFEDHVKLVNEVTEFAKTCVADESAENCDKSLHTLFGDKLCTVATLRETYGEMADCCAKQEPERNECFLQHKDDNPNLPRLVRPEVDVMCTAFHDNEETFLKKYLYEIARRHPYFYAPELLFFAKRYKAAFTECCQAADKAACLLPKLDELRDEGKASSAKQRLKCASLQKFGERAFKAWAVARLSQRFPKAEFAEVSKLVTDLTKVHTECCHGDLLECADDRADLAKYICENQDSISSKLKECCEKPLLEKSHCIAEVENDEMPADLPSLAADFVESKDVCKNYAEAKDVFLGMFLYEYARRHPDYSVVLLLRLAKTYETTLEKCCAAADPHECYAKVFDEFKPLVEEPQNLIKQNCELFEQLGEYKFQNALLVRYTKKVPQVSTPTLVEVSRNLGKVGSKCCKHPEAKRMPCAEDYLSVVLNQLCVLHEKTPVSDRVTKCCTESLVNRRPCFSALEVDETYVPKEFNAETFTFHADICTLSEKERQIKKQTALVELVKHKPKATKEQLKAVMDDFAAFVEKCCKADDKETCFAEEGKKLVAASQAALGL

B1: BGA384 (antibody, human IgG1, kappa)
heavy: not shown
light: QIVLTQSPATLSLSPGERATLSCSAGSSVNYMHWFQQKPGQAPRLLIYSTSNLASGVPARFSGSGSGTDYTLTISSLEPEDFAVYYCQQRSSLPFTFGQGTKLEIKRTVAAPSVFIFPPSDEQLKSGTASVVCLLNNFYPREAKVQWKVDNALQSGNSQESVTEQDSKDSTYSLSSTLTLSKADYEKHKVYACEVTHQGLSSPVTKSFNRGEC
notes: also called BGB-A538; BGA384 WT
As to B1, the Kd in [1] was determined as 0.258 nM; with hPVRIG-ECD-his [5], 0.0826 nM; with FcγRIIIA V158, 297 nM; with FcγRIIIA F158, 689 nM; with FcγRIIA R131, 1920 nM; with FcγRIIB it was 9230 nM. For the same molecule, the Kd in the assay with FcγRIIA H131 worked out at 1480 nM. Moreover, the off-rate (koff) in assay [1] came to 0.000304 s⁻¹; with hPVRIG-ECD-his [5] it was 0.000344 s⁻¹. Moreover, the on-rate (kon) in assay [1] amounted to 1.18e+06 M⁻¹ s⁻¹; with hPVRIG-ECD-his [5], 4.16e+06 M⁻¹ s⁻¹. Also, in assay [2], the binding result is “no binding (tested: 0.5 and 1 µg/mL)”. The “IC50 (read off the curve)” value with hPVRIG-ECD-his [3] is around 0.4 µg/mL. Further, the concentration giving a half-maximal response (EC50 (read off the curve)) in assay [4] is around 0.03 µg/mL. For the same molecule, the concentration giving a half-maximal response (EC50) in [6] was 0.0269 µg/mL; with human PVRIG-mIgG2a [7], 0.00879 µg/mL. The concentration for half-maximal inhibition (IC50) with human PVRIG-mIgG2a [8] was found to be 0.109 µg/mL.
